Where “and” joins values, the source holds several entries; their conditions need not be identical. Equal values may be shown once.
Key:
Biotin-(PEG)4-(GR)10 = tested on: T1, Biotin-(PEG)4-(GR)10
T1 sequence: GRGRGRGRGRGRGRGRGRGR

[1] = tested on: T2, (GR)10 dipeptide repeat peptide
T2 sequence: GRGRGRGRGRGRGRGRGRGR

Chain of Immobilized TPCK-trypsin on agarose resin; ThermoFisher Cat #20230 (P00760 24-246): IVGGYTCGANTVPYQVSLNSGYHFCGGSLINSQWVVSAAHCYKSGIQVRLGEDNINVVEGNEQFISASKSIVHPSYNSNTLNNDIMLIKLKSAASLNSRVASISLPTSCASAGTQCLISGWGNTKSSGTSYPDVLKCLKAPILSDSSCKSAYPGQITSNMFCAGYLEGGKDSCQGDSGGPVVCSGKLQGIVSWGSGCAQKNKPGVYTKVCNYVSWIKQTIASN

| Substance | digestion of biotin-(PEG)4-(GR)10 after 5 minutes, immobilized enzyme (LC/MS) (Biotin-(PEG)4-(GR)10) | (GR)10 concentration left at 0 min (LC/MS; 50 µM start; TFA added before enzyme) [1] | (GR)10 concentration left at 5 min (LC/MS; 50 µM start) [1] | (GR)10 concentration left at 10 min (LC/MS; 50 µM start) [1] | (GR)10 concentration left at 30 min (LC/MS; 50 µM start) [1] | (GR)10 concentration left at 60 min (LC/MS; 50 µM start) [1] | (GR)10 concentration left at 120 min (LC/MS; 50 µM start) [1] | proteolytic activity on (GR)10 of immobilized enzyme after storage at 4° C. for over 2 months (LC/MS) [1] | other results |
| --- | --- | --- | --- | --- | --- | --- | --- | --- | --- |
| trypsin | over 90% digestion of biotin-(PEG)4-(GR)10 after only 5 minutes of incubation time | 52.8 µM and 48.9 µM | 2.2 µM and 2 µM | BLQ | BLQ | BLQ | BLQ | agarose resin having immobilized trypsin exhibited proteolytic activity after storage at 4 °C for over 2 months | (GR)10 left in CSF; Trypsin-Immobilized-5 min reaction (LC/MS; 200 µM (GR)10 in human CSF) [1]: 0 µM; (GR)10 left in CSF; Trypsin-Immobilized-60 min reaction (LC/MS; 200 µM (GR)10 in human CSF) (normalized µM) [1]: -0; (GR)10 left; Trypsin-Immobilized-5 min reaction (LC/MS) [1]: 0 µM; (GR)10 left; Trypsin-immobilized-60 min reaction (LC/MS) [1]: 0 µM; (GR)10 left; Trypsin-in solution-5 min reaction (LC/MS) [1]: 0 µM; (GR)10 left; Trypsin-in solution-60 min reaction (LC/MS) [1]: 0 µM; (GR)10 left; Trypsin-resin wash from 5 min reaction (LC/MS) [1]: 6.6 µM; (GR)10 left; Trypsin-resin wash from 60 min reaction (LC/MS) [1]: 0 µM; conversion of (GR)10 to shorter GR repeats (LC/MS) [1]: Almost complete conversion to (GR)1 and (GR)2 was observed in 5 to 10 min using either 2.5 or 10 µg/mL of trypsin for concentrations 50 µM of (GR)10 |
| elastase | over 90% digestion of biotin-(PEG)4-(GR)10 after only 5 minutes of incubation time | 53.8 µM and 41.6 µM | 52.6 µM and 50.5 µM | 52.5 µM and 37.8 µM | 43.6 µM and 21.1 µM | 35.3 µM and 12.2 µM |  | agarose resin having immobilized elastase did not exhibit substantial (GR)10 proteolytic activity at either 5 minute or 60 minute treatment times | (GR)10 left in CSF; Elastase-Immobilized-5 min reaction (LC/MS; 200 µM (GR)10 in human CSF) (normalized µM) [1]: -0; (GR)10 left in CSF; Elastase-Immobilized-605 min reaction [as printed; 60 min meant] (LC/MS; 200 µM (GR)10 in human CSF) (normalized µM) [1]: -0; (GR)10 left; Elastase-Immobilized-5 min reaction (LC/MS) (µM (normalized to GR concentration)) [1]: -0; (GR)10 left; Elastase-immobilized-60 min reaction (LC/MS) (µM (normalized to GR concentration)) [1]: -0; (GR)10 left; Elastase-in solution-5 min reaction (LC/MS) [1]: 213 µM; (GR)10 left; Elastase-in solution-60 min reaction (LC/MS) (µM (normalized to GR concentration)) [1]: 21.6; (GR)10 left; Elastase-resin wash from 5 min reaction (LC/MS) (µM (normalized to GR concentration)) [1]: -0; (GR)10 left; Elastase-resin wash from 60 min reaction (LC/MS) (µM (normalized to GR concentration)) [1]: -0 |
| Kallikrein 6 (neurosin), autoactivated |  | 27.8 µM and 54.7 µM | 42.2 µM and 57.5 µM | 50.1 µM and 60.8 µM | 57.8 µM and 65 µM | 54.2 µM and 71.5 µM | 54.3 µM and 57.4 µM |  |  |
| Factor Xa |  |  |  |  |  |  |  |  | (GR)10 concentration left at 0 min (LC/MS; 50 µM start; TRIS buffer; TFA added before enzyme) [1]: 33.1 µM and 31 µM; (GR)10 concentration left at 5 min (LC/MS; 50 µM start; TRIS buffer) [1]: 35 µM and 23.5 µM; (GR)10 concentration left at 10 min (LC/MS; 50 µM start; TRIS buffer) [1]: 19.4 µM and 13.6 µM |
| thrombin (activated by thermolysin, quenched by EDTA) |  | 37.7 µM and 52 µM | 42.9 µM and 54.8 µM | 46.7 µM and 59.4 µM | 49.1 µM and 48.6 µM | 56.2 µM and 55.2 µM | 45.3 µM and 48.7 µM |  |  |
| Immobilized TPCK-trypsin on agarose resin; ThermoFisher Cat #20230 | over 90% digestion of biotin-(PEG)4-(GR)10 after only 5 minutes of incubation time |  |  | 2.1 µM and 1.6 µM | 0.6 µM and 0.9 µM |  | 0.1 µM |  | (GR)10 concentration left at 0 min (LC/MS; 50 µM start) [1]: 68.4 µM and 32.7 µM; (GR)10 left in CSF; Commercial Trypsin-Immobilized-5 min reaction (LC/MS; 200 µM (GR)10 in human CSF) (normalized µM) [1]: -0; (GR)10 left in CSF; Commercial Trypsin-Immobilized-605 min reaction [as printed; 60 min meant] (LC/MS; 200 µM (GR)10 in human CSF) (normalized µM) [1]: -0; (GR)10 left; Commercial Trypsin-Immobilized-5 min reaction (LC/MS) [1]: 0 µM; (GR)10 left; Commercial Trypsin-immobilized-60 min reaction (LC/MS) [1]: 0 µM; (GR)10 left; Commercial Trypsin-resin wash from 5 min reaction (LC/MS) [1]: 0 µM; (GR)10 left; Commercial Trypsin-resin wash from 60 min reaction (LC/MS) [1]: 0 µM; digestion of (GR)10 to shorter GR repeats (LC/MS) [1]: Immobilized trypsin at 6.25 TAME Units digests (GR)10 to almost exclusively (GR)1 in 10 to 30 minutes |
